According to publication PMC5823669, “Multi-chaperone function modulation and association with cytoskeletal proteins are key features of the function of AIP in the pituitary gland” (Oncotarget, 2018):
Blank lines part the entries; values can stand above or below the binder they belong to.

Key:
[1] = biological target: T1, GST-tagged human AIP p.R304* (human, UniProt O00170 1-303); assay: affinity purification with mass spectrometry; GST pull-down: 10 ug of purified GST-AIP bait (WT or variant) against 2 mg total protein of GH3 cell lysate; eluates of four experiments pooled; TMTsixplex labelling, Orbitrap MS; peptide intensities minus the GST control, variants given as fold of the WT experiment (WT = 1); conditions: one partner purified
T1 construct: AIP, human, UniProt O00170; natural nonsense variant c.910C>T, p.R304*: stop codon in place of R304, truncated protein ending at residue 303; The C-terminal limit 303 follows from the printed p.R304*; also called GST-AIP R304*; not shown: GST, N-terminal, kept
T1 sequence (looked up): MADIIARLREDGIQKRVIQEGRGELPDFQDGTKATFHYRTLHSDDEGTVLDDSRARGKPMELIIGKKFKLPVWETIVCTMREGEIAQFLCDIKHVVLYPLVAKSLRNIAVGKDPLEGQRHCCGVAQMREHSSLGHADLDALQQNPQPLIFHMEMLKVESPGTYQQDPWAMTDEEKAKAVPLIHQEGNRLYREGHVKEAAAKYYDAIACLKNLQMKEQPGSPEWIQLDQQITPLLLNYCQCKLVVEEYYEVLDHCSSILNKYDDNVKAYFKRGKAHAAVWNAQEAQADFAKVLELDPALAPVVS

[2] = biological target: T2, GST-tagged human AIP p.A299V (human, UniProt O00170 1-330, p.A299V); assay: as above; conditions: one partner purified
T2 construct: AIP, human, UniProt O00170; also called GST-AIP A299V; not shown: GST, N-terminal, kept
T2 sequence (looked up): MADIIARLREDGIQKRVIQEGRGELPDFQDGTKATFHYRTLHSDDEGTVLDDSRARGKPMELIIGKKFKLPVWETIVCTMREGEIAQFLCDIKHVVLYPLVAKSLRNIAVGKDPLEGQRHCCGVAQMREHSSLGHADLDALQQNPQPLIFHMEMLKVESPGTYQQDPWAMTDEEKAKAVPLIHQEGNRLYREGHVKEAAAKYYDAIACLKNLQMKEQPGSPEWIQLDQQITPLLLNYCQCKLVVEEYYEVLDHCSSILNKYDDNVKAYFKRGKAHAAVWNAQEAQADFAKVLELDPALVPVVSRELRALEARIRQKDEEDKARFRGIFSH

normalized intensity value (fold of the WT AIP pull-down) [1]: 0.3 fold of WT
B1: TBB2A_RAT Tubulin beta-2A chain (Tubb2a) (natural protein, R. norvegicus (endogenous in GH3), UniProt P85108 1-445, looked up)
chain: MREIVHIQAGQCGNQIGAKFWEVISDEHGIDPTGSYHGDSDLQLERINVYYNEAAGNKYVPRAILVDLEPGTMDSVRSGPFGQIFRPDNFVFGQSGAGNNWAKGHYTEGAELVDSVLDVVRKESESCDCLQGFQLTHSLGGGTGSGMGTLLISKIREEYPDRIMNTFSVMPSPKVSDTVVEPYNATLSVHQLVENTDETYSIDNEALYDICFRTLKLTTPTYGDLNHLVSATMSGVTTCLRFPGQLNADLRKLAVNMVPFPRLHFFMPGFAPLTSRGSQQYRALTVPELTQQMFDSKNMMAACDPRHGRYLTVAAIFRGRMSMKEVDEQMLNVQNKNSSYFVEWIPNNVKTAVCDIPPRGLKMSATFIGNSTAIQELFKRISEQFTAMFRRKAFLHWYTGEGMDEMEFTEAESNMNDLVSEYQQYQDATADEQGEFEEEEGEDEA
notes: Tubulin beta-2A chain, rat, UniProt P85108; source: endogenous, GH3 cell lysate

normalized intensity value (fold of the WT AIP pull-down) [1]: 0.2 fold of WT
B2: TBB5_RAT Tubulin beta-5 chain (Tubb5) (natural protein, R. norvegicus (endogenous in GH3), UniProt P69897 1-444, looked up)
chain: MREIVHIQAGQCGNQIGAKFWEVISDEHGIDPTGTYHGDSDLQLDRISVYYNEATGGKYVPRAILVDLEPGTMDSVRSGPFGQIFRPDNFVFGQSGAGNNWAKGHYTEGAELVDSVLDVVRKEAESCDCLQGFQLTHSLGGGTGSGMGTLLISKIREEYPDRIMNTFSVVPSPKVSDTVVEPYNATLSVHQLVENTDETYCIDNEALYDICFRTLKLTTPTYGDLNHLVSATMSGVTTCLRFPGQLNADLRKLAVNMVPFPRLHFFMPGFAPLTSRGSQQYRALTVPELTQQVFDAKNMMAACDPRHGRYLTVAAVFRGRMSMKEVDEQMLNVQNKNSSYFVEWIPNNVKTAVCDIPPRGLKMAVTFIGNSTAIQELFKRISEQFTAMFRRKAFLHWYTGEGMDEMEFTEAESNMNDLVSEYQQYQDATAEEEEDFGEEAEEEA
notes: Tubulin beta-5 chain, rat, UniProt P69897; also called tubulin beta chain; source: endogenous, GH3 cell lysate

normalized intensity value (fold of the WT AIP pull-down) [2]: 0.2 fold of WT
B3: NDKA_RAT Nucleoside diphosphate kinase A (Nme1) (natural protein, R. norvegicus (endogenous in GH3), UniProt Q05982 1-152, looked up)
chain: MANSERTFIAIKPDGVQRGLVGEIIKRFEQKGFRLVGLKFIQASEDLLKEHYIDLKDRPFFSGLVKYMHSGPVVAMVWEGLNVVKTGRVMLGETNPADSKPGTIRGDFCIQVGRNIIHGSDSVESAEKEISLWFQPEELVDYKSCAQNWIYE
notes: Nucleoside diphosphate kinase A, rat, UniProt Q05982; also called NME/NM23 nucleoside diphosphate kinase 1; source: endogenous, GH3 cell lysate
